Assay in all cases: Kd (EC50 corrected by depletion factor)
The target of one series is T1, C1QBP (UniProt Q07021).
T1 sequence: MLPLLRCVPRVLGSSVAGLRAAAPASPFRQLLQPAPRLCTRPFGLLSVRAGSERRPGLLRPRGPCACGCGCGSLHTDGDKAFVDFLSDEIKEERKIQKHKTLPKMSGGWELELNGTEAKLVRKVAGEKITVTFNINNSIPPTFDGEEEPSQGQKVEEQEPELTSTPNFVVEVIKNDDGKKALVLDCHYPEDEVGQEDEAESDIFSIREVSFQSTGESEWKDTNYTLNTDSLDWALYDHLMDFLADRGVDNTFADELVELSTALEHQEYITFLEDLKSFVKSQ
The method, boiled down:
(§1)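 To obtain EC50, data were fitted with a four-parameter log-logistic model; Kd was then EC50 multiplied by a protein-dependent depletion factor. Beforehand, free RNA oligos (0 nM to 30 μM) were pre-incubated with HEK293-FT lysate (2.5 mg protein/well) for 1 h at 4°C. The lysate then spent 30 min at 4°C with the same 5′-amino-C6 oligos coupled to NHS-Sepharose beads, and bound proteins were quantified by label-free LC-MS/MS, normalised to the control.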

The next series has as its target P4HB (UniProt P07237). The method, boiled down:
as §1

Another series deals with T2, PUF60 (UniProt Q9UHX1).
T2 sequence: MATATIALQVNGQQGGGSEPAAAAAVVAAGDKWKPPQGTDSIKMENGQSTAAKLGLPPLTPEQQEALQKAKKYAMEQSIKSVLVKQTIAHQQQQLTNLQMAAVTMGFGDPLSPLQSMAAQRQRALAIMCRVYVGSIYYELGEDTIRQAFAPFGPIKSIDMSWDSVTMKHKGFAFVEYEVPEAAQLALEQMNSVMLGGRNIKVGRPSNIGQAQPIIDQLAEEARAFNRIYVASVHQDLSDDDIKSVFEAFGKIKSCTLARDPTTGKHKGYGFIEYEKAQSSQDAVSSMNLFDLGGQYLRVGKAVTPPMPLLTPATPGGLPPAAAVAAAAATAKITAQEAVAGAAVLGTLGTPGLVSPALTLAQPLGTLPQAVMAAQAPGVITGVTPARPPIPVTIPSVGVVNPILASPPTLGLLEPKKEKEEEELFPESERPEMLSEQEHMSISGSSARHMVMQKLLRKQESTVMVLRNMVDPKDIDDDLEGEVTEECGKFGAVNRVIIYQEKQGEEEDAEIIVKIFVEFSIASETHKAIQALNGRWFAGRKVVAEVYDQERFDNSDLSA
The method, boiled down: as §1

A further series has as its target MRPL13 (UniProt Q9BYD1). The method, boiled down: as §1
Another series addresses RPS28 (UniProt P62857). The method, boiled down: as §1
The target of a further series is T3, CWF19L1 (UniProt Q69YN2).
T3 sequence: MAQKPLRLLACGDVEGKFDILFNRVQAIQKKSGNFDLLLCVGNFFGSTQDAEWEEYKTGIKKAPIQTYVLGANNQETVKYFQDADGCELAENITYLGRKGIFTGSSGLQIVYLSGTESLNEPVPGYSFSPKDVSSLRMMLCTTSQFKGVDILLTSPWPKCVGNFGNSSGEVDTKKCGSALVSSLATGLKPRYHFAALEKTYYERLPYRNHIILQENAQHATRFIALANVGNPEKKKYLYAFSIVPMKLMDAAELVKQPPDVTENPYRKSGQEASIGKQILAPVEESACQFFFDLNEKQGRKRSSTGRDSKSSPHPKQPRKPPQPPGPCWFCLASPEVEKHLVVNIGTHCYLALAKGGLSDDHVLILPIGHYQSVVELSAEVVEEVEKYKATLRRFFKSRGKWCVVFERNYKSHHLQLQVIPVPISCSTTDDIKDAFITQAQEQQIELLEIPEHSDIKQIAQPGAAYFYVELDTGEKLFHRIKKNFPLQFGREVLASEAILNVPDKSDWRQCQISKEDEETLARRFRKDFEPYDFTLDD
The method, boiled down:
as §1

For another series, the target named is T4, MEX3D (UniProt Q86XN8).
T4 sequence: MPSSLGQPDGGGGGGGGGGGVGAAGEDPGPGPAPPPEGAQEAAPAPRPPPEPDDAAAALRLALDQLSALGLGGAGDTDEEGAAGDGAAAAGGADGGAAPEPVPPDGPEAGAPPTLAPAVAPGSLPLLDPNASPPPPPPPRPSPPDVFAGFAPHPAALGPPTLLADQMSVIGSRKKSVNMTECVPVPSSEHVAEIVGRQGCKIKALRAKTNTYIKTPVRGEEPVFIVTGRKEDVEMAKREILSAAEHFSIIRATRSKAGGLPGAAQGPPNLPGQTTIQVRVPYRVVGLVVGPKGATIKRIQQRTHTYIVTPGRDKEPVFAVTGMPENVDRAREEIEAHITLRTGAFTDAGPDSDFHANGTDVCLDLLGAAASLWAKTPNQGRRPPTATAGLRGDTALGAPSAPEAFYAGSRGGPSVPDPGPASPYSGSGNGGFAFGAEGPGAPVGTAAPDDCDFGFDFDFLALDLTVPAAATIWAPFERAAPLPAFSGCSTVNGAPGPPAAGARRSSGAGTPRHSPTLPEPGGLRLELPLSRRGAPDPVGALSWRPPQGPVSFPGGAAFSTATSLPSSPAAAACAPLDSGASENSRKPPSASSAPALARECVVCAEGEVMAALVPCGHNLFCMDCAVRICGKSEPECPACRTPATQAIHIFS
A digest of the protocol:
as §1

Another series has as its target MRPS34 (UniProt P82930). The method, boiled down: as §1
The next series concerns the target TARDBP (UniProt Q13148). The method, boiled down: as §1
A further series deals with T5, ZCRB1 (UniProt Q8TBF4).
T5 sequence: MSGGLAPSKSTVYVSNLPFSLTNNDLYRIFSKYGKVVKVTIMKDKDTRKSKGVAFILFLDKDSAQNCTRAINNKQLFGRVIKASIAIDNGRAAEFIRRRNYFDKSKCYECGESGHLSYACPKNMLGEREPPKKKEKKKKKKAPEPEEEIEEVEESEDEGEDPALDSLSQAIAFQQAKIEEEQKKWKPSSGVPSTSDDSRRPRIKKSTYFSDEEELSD
A digest of the protocol:
as §1

TARDBP, sequence (Q13148 whole entry): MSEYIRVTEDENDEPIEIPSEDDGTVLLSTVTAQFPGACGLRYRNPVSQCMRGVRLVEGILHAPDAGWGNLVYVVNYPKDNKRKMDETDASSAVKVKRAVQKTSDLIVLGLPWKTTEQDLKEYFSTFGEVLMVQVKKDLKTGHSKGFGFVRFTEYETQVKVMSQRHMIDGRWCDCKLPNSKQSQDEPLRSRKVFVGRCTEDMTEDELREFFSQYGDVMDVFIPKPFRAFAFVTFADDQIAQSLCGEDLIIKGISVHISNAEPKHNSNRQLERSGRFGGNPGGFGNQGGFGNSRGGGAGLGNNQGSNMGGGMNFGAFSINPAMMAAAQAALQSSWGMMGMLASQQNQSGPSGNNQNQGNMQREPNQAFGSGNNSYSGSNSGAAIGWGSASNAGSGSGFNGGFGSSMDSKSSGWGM
P4HB, sequence (P07237 whole entry, looked up): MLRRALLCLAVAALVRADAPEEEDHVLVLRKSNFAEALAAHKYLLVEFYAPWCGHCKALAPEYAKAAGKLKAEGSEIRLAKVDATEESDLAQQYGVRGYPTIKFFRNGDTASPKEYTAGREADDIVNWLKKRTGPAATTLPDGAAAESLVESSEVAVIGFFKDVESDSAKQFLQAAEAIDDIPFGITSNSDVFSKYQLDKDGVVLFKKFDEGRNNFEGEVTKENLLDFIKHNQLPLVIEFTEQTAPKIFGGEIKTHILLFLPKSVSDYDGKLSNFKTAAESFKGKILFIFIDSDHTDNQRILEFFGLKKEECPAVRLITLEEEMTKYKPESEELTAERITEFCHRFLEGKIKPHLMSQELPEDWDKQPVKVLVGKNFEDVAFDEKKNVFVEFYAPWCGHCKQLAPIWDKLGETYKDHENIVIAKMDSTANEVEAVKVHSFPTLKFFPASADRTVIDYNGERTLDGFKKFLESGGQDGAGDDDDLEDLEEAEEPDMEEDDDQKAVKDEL

Broadly, the Kd is the constant that tells how readily two partners part at equilibrium. AAUAAA: the Kd with C1QBP is 477 nM; with P4HB it was 24.8 nM; in the series with PUF60, 162 nM.

Consider CUGUCCU, for which the Kd worked out at 78.4 nM with MRPL13 and 115 nM with RPS28.

In the case of UAUUUAU, the dissociation constant (Kd) with CWF19L1 came to 1960 nM; with MEX3D it was 465 nM; with MRPS34 it was 46.2 nM; with TARDBP, 1320 nM; with ZCRB1, 3450 nM.

These data come from the supplement of paper PMC6379048.
